Data taken from patent US7358088B2, “Peptides and compositions which modulate apoptosis” (ImmunoGen, Inc., priority 1995, dated 2008).
Ends that are not written are not given here.

B1: Bax ΔGD: Bax mutant with small deletion removing the conserved GD domain motif (protein)
chain: MDGSGEQPRGGGPTSSEQIMKTGALLLQGFIQDRAGRMGGEAPELALDPVPQDASTKKMELQRMIAAVDTDSPREVFFRVAADMFSDGNFNWGRVVALFYFASKLVLKALCTKVPELIRTIMGWTLDFLRERLLGWIQDQGGWDGLLSYFGTPTWQTVTIFVAGVLTASLTIWKKMG
B2: Bip1a ΔGD: Bip1a mutant with small deletion removing the conserved GD domain motif (protein)
chain: MSEVRPLSRDILMETLLYEQLLEPPTMEVLGMTDSEEDLDPMEDFDSLECMEGSDALRAPRLAQLSEVAMHSLGLAFIYDQTEDIRDVLRSFMDGFTTLKENIMRFWRSPNPGSWVSCEQVLLALLLLLALLLPLLSGGLHLLLK
B3: Bip1a: Bcl-2 interacting protein that induces apoptosis, lacks BH1 and BH2 (protein)
chain: MSEVRPLSRDILMETLLYEQLLEPPTMEVLGMTDSEEDLDPMEDFDSLECMEGSDALALRLACIGDEMDVSLRAPRLAQLSEVAMHSLGLAFIYDQTEDIRDVLRSFMDGFTTLKENIMRFWRSPNPGSWVSCEQVLLALLLLLALLLPLLSGGLHLLLK

The molecules below were run against T1, Bcl-xL/Bak GD domain interaction (Homo sapiens, UniProt Q07817) (assay: High through-put screening assay 2: GST-Bcl-xL binding to biotinylated Bak GD peptide on neutravidin wells, ELISA). Settings: competing peptide added, ELISA signal.
T1 construct: made in house; host or cells: E. coli
T1 sequence (Q07817 whole entry, the tested form may be a part): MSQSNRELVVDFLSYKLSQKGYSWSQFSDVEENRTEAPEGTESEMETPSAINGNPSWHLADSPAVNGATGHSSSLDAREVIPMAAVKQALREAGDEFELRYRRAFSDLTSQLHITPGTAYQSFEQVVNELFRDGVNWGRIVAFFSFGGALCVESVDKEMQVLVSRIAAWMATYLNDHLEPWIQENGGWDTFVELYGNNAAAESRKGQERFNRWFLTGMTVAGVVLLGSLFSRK
Experimental: An assay was developed to screen for compounds that block the interaction between the Bcl-2 homologs, Bcl-xL and Bak. A synthetic peptide corresponding to the Bak GD binding domain ([…] [SEQ ID NO: 35]) was biotinylated and bound to wells coated with neutravidin. […] Peptides encompassing the GD domain from various Bcl-2 family members were tested for their ability to block GD domain-mediated interactions in this assay. Peptides tested: Bcl-w [SEQ ID NO: 39] […] ([…]), Bak [SEQ ID NO: 36]([…]), Bak-15 [SEQ ID NO: 37] ([…]), Bak-15L78A [SEQ ID NO: 38] ([…]), control (no peptide).
In a modification of the high through-put screening assay 1 described herein, wells are coated with an avidin derivative, to which a biotinylated peptide/protein is bound. A GST-fusion protein that can interact with the biotinylated peptide/protein is added in the presence or absence of test compounds. The plates are incubated and then unbound GST-fusion protein is removed by washing. The amount of GST-fusion protein specifically bound to the tethered peptide/protein is determined by ELISA using an anti-GST antibody conjugated to horse radish peroxidase. Compounds which block the interaction between the biotinylated peptide/protein and the GST-fusion protein cause a decrease in the ELISA signal.
In a specific example, an assay was developed to screen for compounds that block the interaction between the Bcl-2 homologs, Bcl-xL and Bak. A biotinylated Bak GD domain peptide (amino acid residues 71-89; N-biotinylated […] [SEQ ID NO: 35]) was bound to wells coated with neutravidin. […] Using this assay, peptides from Bcl-2 family members were identified which block the Bcl-xL/Bak GD domain interaction (FIG. 10).
AADPLHQAMRAAGDEFETRF [Bcl-w peptide] was tested, and the “inhibition of Bcl-xL/Bak GD domain binding” value (“inhibition” for short) was “did not block binding”. For “GSDALALRLACIGDEMDVSL [Bip1a peptide, peptide encompassing the GD domain from Bip1a]”, the “inhibition” value was “concentration-dependent inhibition of binding”. “STKKLSECLKRIGDELDSNH [Bax peptide, peptide encompassing the GD domain from Bax]” was tested, and the “inhibition” value was “concentration-dependent inhibition of binding”.

What follows are molecules tested against Bcl-xL (Homo sapiens, UniProt Q07817) (assay: In vitro protein binding assay, 35S labeled protein with GST-Bcl-xL on glutathione-agarose beads). Settings: tested both in vitro and in transfected COS cells.
Sequence of Bcl-xL (Q07817 whole entry): as the sequence (Q07817 whole entry, the tested form may be a part) above
Design: made in house; host or cells: E. coli
Experimental: A). Bak/Bcl-xL interactions measured in vitro. ^35S labeled in vitro translated Bak (lane 1) was mixed either with GST-Bcl-xL (lane 2) or GST (lane 3). The complexes were captured on glutathione-agarose beads, and bound ^35S labeled Bak protein was detected by electrophoresis on SDS polyacrylamide gels followed by autoradiography.
The beads were removed by centrifugation and the supernatants were incubated with GST or GST-Bcl-xL (final concentration […]) at 4° C. for 1 hour. The GST fusion proteins and any interacting proteins were recovered by incubation for 1 hour with an additional […] of GSH-agarose beads. The beads were washed twice with NP-40 lysis buffer followed by two washes with NP-40 lysis buffer without NP-40. Proteins were eluted from the beads by incubation in SDS-PAGE sample buffer at 100° C. for 5 min and loaded onto 4-20% SDS-polyacrylamide gels. Following electrophoresis, gels were fixed and incubated in a fluorography enhancing solution (Amplify; Amersham). The gels were dried and subjected to autoradiography at −70° C.
With “Bax: Bcl-2 homolog and Bcl-2 interacting protein that induces apoptosis” the Bcl-xL binding capacity was “interact specifically with Bcl-xL”. With “PEM: truncated Bak protein derivative corresponding to amino acids 58-103 (PEMVTLPLQPSSTMGQVGRQLAIIGDDINRRYDSEFQTMLQHLQPT; not fully specified)” the Bcl-xL binding capacity was “bound Bcl-xL”. For “QVG: truncated Bak protein derivative corresponding to amino acids 73-123 (QVGRQLAIIGDDINRRYDSEFQTMLQHLQPTAENAYEYFTKIATSLFESGI; not fully specified)”, the Bcl-xL binding capacity was “bound Bcl-xL”. With B1 the Bcl-xL binding capacity was “no longer have the capacity to interact with Bcl-xL”. For B2, the Bcl-xL binding capacity was “no longer have the capacity to interact with Bcl-xL”. For B3, the Bcl-xL binding capacity was “interact specifically with Bcl-xL”.

The molecules below were run on HeLa cells (assay: Microinjection assay, protection from anti-Fas and cycloheximide induced death). Settings: HeLa cells microinjected with 0.3 mg/ml protein, anti-Fas and cycloheximide 18 hours.
Type: cell-based
Experimental: HeLa cells (>100 cells/condition) were microinjected without (buffer) or with GST-Bcl-xL (0.3 mg/ml) in the absence or presence of GD domain peptides (0.5 mg/ml) and the recovery of live injected cells was determined after treatment with anti-Fas and cycloheximide for 18 hours. FITC-dextran was coinjected as a marker. A 15-amino acid Bak GD domain peptide (Bak-15; residues 73-87; […] [SEQ ID NO: 37]) and a mutant Bak GD domain peptide with an alanine substitution at leucine 78 (Bak-15L78A; […] [SEQ ID NO: 38]) were tested.
A cell-based microinjection assay is provided for the identification of agents that antagonize GD domain-mediated interactions and inhibit the cell death suppression activity of Bcl-xL and/or Bcl-2. One or preferably more than one cells are microinjected with a death suppressor protein, such as Bcl-xL or Bcl-2, which protects the cells from induction of cell death by an apoptosis-inducing agent, in the presence of a test compound, composition or agent. Compounds that bind to the death suppressor protein and prevent its protective function, resulting in the death of the microinjected cells, can thereby be identified.
The ability of GD domain peptide variants to inhibit the function of Bcl-xL correlated with their ability to bind to Bcl-xL (see FIG. 10). […] Similar results were obtained with MRC5 human diploid fibroblasts where protection from anti-Fas-induced death by microinjected Bcl-xL was inhibited by co-injection of the wild-type, but not mutant, Bak BH3 peptide.
Microinjection procedure: HeLa cells were plated in complete DMEM in 60 mm dishes at 2.4×10^5 cells per dish. […] Following injection, the cells were returned to the incubator and after 1 hour the number of injected cells was determined by fluorescence microscopy. Cells were then treated with anti-Fas mAb (7C11) and cycloheximide ([…]) and the recovery of injected cells remaining after 18 hours was determined.
“GST-Bcl-xL: bacterially-expressed GST fusion protein of the survival protein Bcl-xL” was tested, and the “protection from death induced by Fas ligation” value was “efficiently protected HeLa cells from death”.

Same assay, conditions: HeLa cells, microinjected peptide, absence of anti-Fas treatment
QVGRQAAIIGDDINR [Bak-15L78A] was tested, and the “effect on cell viability” value was “neither peptide had an effect on cell viability”. For QVGRQLAIIGDDINR [Bak-15], the “effect on cell viability” value was “neither peptide had an effect on cell viability”.

The molecules below were run on Rat-1 cells (assay: Transient transfection cell killing assay (loss of β-galactosidase-positive blue cells)). Settings: Rat-1 cells co-transfected with β-galactosidase marker plasmid, 24 hours post transfection, relative to control vector.
Type: cell-based
Experimental: The transient transfection assay procedure is similar to that previously described for detecting apoptosis induced by IL-1E-converting enzyme (Miura et al., Cell 75: 653-660 (1993); Kumar et al., Genes Dev. 8: 1613-1626 (1994); Wang et al., Cell 78: 739-750 (1994). One day prior to transfection, Rat-1 cells were plated in 24 well dishes at 3.5X10^4 cells/well. The following day, the cells were transfected with a marker plasmid encoding β-galactosidase (0.16 μg), in combination with an expression plasmid encoding Bak (0.42 μg), by the Lipofectamine procedure (Gibco/BRL). At 24 hours post transfection, cells were fixed and stained with X-Gal to detect J-galactosidase expression in cells that received plasmid DNA (Miura et al., supra). The number of blue cells was counted by microscopic examination and scored as either live (flat blue cells) or dead (round blue cells). The cell killing activity of Bak in this assay is manifested by a large reduction in the number of blue cells obtained relative to co-transfection of the β-gal plasmid with a control expression vector (i.e., with no bak cDNA insert).
The interpretation that loss of blue cells reflects the cell killing function of Bak is supported by a variety of observations: • 1. Rat-1 cells are rapidly killed by enforced Bak expression in stable transfection assays; • 2.
Enforced bak expression induces apoptosis in stable Rat-1 cell lines transfected with an inducible bak expression plasmid. In order to more rapidly assess the cell killing function of a large number of bak mutants, a transient transfection assay was employed. Rat-1 cells were transfected with a marker plasmid encoding β-galactosidase, in combination with an expression plasmid encoding Bak, or various control plasmids.
For “Bax: Bcl-2 homolog and Bcl-2 interacting protein that induces apoptosis”, the “cell killing activity (reduction in number of blue β-gal expressing cells)” value was “eliminate blue cells”. With “QVG: truncated Bak protein derivative corresponding to amino acids 73-123 (QVGRQLAIIGDDINRRYDSEFQTMLQHLQPTAENAYEYFTKIATSLFESGI; not fully specified)” the “cell killing activity (reduction in number of blue β-gal expressing cells)” value was “significantly reduced the number of blue cells”. In the case of B1, the “cell killing activity (reduction in number of blue β-gal expressing cells)” value is reported as “impaired in their ability to eliminate blue cells”. For B2, the “cell killing activity (reduction in number of blue β-gal expressing cells)” value was “impaired in their ability to eliminate blue cells”. With B3 the “cell killing activity (reduction in number of blue β-gal expressing cells)” value was “eliminate blue cells”.

Same assay, conditions: Rat-1 cells, co-transfection of Bak with Bcl-xL
For “Bcl-xL: long form of bcl-x product, suppresses apoptosis”, the “restoration of number of blue cells on co-transfection with Bak” value was “partially restored”.
